Several values for one entry are separate records, joined by “and”; a condition that tells them apart may be missing. Identical values can stand only once. Bridge positions count the residues as written; N and C are the ends. Ends that are not written are not given here.
How the values were obtained:
[1] = tested on: frozen-thawed rooster sperm bound to an egg-membrane substrate; test: BioPore Sperm-Binding Assay: percentage of sperm binding to an egg-membrane substrate; format: cell-based; settings: 10 minutes at 37° C. exposure, 2 million sperm/well
Procedure: All three peptides were incubated at 0, 20 and 80 ng peptide/million sperm prior to evaluation. Ration % bound calculated as: % bound with Peptide / % bound for Control; and
We used the BioPore® Sperm-Binding Assay (Amann et al., 1999) to compare. percentage of sperm binding to an egg-membrane substrate (similar to Barbato et al., 1998) after brief in vitro exposure to three concentrations of a prior art peptide (Hammerstedt et al., 1997), representing each of two lots of peptide SEQ ID NO: 4 (after disulfide linking the cystine residues) or three concentrations of SEQ ID NO: 1 (after disulfide linking the cystine residues). Briefly, cryopreserved rooster semen (Gill et al., 1996) from broiler males (Barbato et al., 1998) was thawed, deglycerolated (Gill et al., 1996), and adjusted to provide a concentrated suspension of sperm in an appropriate salts buffer. We used one containing: 0.600 g sodium glutamate, 0.210 g potassium glutamate, 0.100 g glucose, 0.070 g sorbitol, 0.035 g magnesium sulfate, 0.210 g potassium acetate, 0.050 g potassium citrate, 0.700 g di-potassiumphosphate, 0.160 g mono-potassium phosphate, 0.800 g di-sodium phosphate, 0.100 9 potassium hydroxide, 0.300 g N,N -bis[2-hydroxyethyl]-2-aminoethanesulfonic acid, 0.400 g N-[2-hydroxyethyl]piperazine-N'-[2-ethanesulfonic acid], and 0.400 g N-tris[hydroxymethyl]methyl-2-aminoethanesulfonic acid, dissolved in distilled water to make 100 ml (Tajima et al., 1989). Aliquots of this suspension were placed in tubes containing one of the three peptide sequences at 0, 20 or 80 ng per million sperm. After mixing and 10 minutes incubation at 37° C., the suspensions were further diluted and assayed using 2 million sperm/well in the microwell assay plates. Plates were incubated at 32° C. for 60 min, after which unbound sperm were decanted, the wells washed, and the DNA in sperm bound to the egg-membranesubstrate in the microwell plates quantified (Barbato et al., 1998). […] With SEQ ID NO: 1, however, binding for suspensions exposed to either 20 or 80 ng/million sperm was greater, namely 1.20 and 1.22 the control value.

[2] = tested on: White Leghorn hens inseminated with frozen-thawed rooster sperm; test: Fertility trial: artificial insemination of hens with frozen-thawed rooster sperm exposed to peptide; format: in vivo, chicken
From the text: Each bar based on >425 eggs.
To compare fertility achieved after exposure of rooster sperm to SEQ ID NO: 4 and SEQ ID NO: 1, we used cryopreserved semen as in Example 1. To facilitate detection of benefit from peptides, we used a limited number of sperm for each artificial insemination. Pooled, deglycerolated semen (1 billion sperm/ml; at 0-4C.), in salts buffer as described in Example 1, was dispensed into tubes containing SEQ ID NO: 4 or SEQ ID NO: 1 to make nine suspensions: 0.0 (control), 0.2, 0.5, 1.0 or 2.0 μM and mixed. Artificial insemination of White Leghorn hens (40/group) was within 1 hour, and used 50 μl (50 million sperm). Eggs were collected daily, stored ≤7 d at 14C., incubated, and candled on day 7 (eggs with viable embryo were classed as fertile). Data resulting from four inseminations at 4-day intervals are shown (FIG. 2). It was concluded that both 0.2 and 0.5 μM SEQ ID NO: 4 improved fertility as did 0.2, 0.5, 1.0 and 2.0 μM SEQ ID NO: 1. […] The increase in fertility (above the control value) with the best concentration of SEQ ID NO: 1 (15.4 units at 2.0 μM) was 2.0× that with SEQ ID NO: 4 (7.8 units at 0.5 μM). Clearly, brief in vitro exposure of sperm to SEQ ID NO: 1 rather than SEQ ID NO: 4 before artificial insemination gave a greater increase in percentage of fertilized eggs over a greater range in concentration.

[3] = 20 ng peptide/million sperm, SEQ ID NO: 4 as 2 preparations (lots)

Molecule: CQSLQEYLAEQNQRQLESNKIPEVDLARVVAPFMSNIPLLLYPQDRPRSQPQPKANEDVC (disulfide 1-60) [SEQ ID NO: 4, reference compound]
- binding relative to the value for the non-peptide control (ratio % bound with peptide / % bound for control) [1, 3]: 1.13 × and 1.17 ×

B1: Cys-Gln-Ser-Leu-Gln-Glu-Tyr-Leu-Ala-Glu-Gln-Asn-Gln-Arg-Gln-Leu-Glu-Ser-Asn-Lys-Ile-Pro-Glu-Val-Asp-Leu-Ala-Agr-Val-Val-Ala-Pro-Phe-Met-Ser-Asn-Ile-Pro-Leu-Leu-Leu-Tyr-Pro-Gln-Asp-Arg-Pro-Arg-Ser-Gln- … (peptide)
chain: CQSLQEYLAEQNQRQLESNKIPEVDLAAVVAPFMSNIPLLLYPQDRPRSQPQPKANEDVCVNHHHHHH
- binding relative to the value for the non-peptide control (ratio % bound with peptide / % bound for control) [1, 3]: 1.20 ×
- binding relative to the value for the non-peptide control (ratio % bound with peptide / % bound for control) ([1]; 80 ng peptide/million sperm): 1.22
- increase in fertility (above the control value) with the best concentration ([2]; 2.0 μM peptide, percentage of fertilized eggs, 50 million sperm, four inseminations at 4-day intervals): 15.4 units
- increase in fertility with best concentration relative to that with SEQ ID NO: 4 ([2]; SEQ ID NO: 1 at 2.0 μM vs SEQ ID NO: 4 at 0.5 μM): 2.0 ×
- fold range of concentrations of benefit to fertility ([2]; tested 0.2, 0.5, 1.0, 2.0 μM): ≥ 10 fold
